In one assay the target is mouse cMET (recombinant) (mouse, UniProt P16056 25-929, limits assumed). Description: ELISA, antigen coated at 1 µg/mL, antibody titrated from 10 µg/mL. (In general: In an ELISA, binding on a coated surface is turned into a signal by an enzyme label.)
A further assay deals with T1, Ron (CD136) (UniProt Q04912 25-957, limits assumed).
T1 sequence (looked up): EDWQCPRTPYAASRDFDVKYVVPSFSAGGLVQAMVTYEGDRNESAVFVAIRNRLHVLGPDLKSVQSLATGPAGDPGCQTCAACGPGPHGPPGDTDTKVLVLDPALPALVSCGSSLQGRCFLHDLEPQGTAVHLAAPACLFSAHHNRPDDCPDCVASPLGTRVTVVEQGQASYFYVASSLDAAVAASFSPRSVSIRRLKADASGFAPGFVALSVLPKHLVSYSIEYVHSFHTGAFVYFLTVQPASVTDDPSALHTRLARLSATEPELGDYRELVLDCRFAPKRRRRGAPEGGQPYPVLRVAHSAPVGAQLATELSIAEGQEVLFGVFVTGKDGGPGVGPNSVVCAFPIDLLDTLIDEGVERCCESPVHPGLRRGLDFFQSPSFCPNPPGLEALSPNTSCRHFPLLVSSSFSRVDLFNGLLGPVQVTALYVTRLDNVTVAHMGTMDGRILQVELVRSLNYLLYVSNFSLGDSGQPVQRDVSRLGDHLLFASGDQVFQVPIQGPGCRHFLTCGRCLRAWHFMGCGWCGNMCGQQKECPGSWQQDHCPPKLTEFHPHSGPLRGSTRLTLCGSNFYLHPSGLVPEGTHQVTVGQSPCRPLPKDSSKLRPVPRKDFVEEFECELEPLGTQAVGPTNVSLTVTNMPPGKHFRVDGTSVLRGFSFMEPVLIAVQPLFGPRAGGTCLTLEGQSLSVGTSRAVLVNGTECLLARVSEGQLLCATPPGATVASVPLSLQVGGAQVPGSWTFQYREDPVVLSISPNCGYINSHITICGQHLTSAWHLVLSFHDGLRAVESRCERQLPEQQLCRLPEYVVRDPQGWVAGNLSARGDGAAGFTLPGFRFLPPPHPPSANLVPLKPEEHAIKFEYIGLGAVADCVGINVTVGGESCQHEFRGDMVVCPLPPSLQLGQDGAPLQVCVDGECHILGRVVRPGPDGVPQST
The description is as above.

Chain of mouse cMET (recombinant) (P16056 25-929 limits assumed): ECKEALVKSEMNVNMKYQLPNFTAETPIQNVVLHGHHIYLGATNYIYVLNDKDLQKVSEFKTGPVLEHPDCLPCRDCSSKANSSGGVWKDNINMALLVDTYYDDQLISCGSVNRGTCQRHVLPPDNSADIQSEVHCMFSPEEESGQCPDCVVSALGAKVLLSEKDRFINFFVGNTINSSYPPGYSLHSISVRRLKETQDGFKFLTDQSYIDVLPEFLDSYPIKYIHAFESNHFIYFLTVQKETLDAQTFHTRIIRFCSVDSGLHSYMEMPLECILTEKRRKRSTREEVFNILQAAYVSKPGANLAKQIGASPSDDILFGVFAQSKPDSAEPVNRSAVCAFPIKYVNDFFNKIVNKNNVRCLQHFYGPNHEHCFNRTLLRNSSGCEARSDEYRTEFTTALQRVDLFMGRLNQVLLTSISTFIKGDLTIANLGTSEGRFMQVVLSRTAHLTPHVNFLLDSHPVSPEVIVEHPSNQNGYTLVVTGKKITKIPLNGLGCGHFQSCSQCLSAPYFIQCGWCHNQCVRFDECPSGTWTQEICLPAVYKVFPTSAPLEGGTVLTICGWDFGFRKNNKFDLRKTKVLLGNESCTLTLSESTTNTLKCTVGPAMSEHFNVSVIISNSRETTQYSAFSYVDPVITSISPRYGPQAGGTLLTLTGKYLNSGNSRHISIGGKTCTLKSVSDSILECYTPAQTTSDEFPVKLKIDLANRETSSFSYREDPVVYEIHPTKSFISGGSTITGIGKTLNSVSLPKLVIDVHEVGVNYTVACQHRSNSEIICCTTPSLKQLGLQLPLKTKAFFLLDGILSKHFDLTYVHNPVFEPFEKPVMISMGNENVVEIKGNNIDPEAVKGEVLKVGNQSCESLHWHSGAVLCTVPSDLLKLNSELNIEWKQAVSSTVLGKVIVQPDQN

B1: RAA22/B09-57 DuetMab (bispecific antibody, V domains shown)
VH 1: QVQLVQSGAEVKKPGSSVKVSCKASGGTFSDNDFSWVRQAPGQGLEWMGAIVAVFRTETYAQKFQDRVKITADISTRTTYMELSSLRSEDTAVYYCARRLMSAISGPGAPLLMWGQGTLVTVSS
VL 1: QSALTQPRSVSGSPGQSVTISCTGTSSDVGGYNYVSWYQQHPGKAPKLMIYDVSKRPSGVPDRFSGSKSGNTASLTISGLQAEDEADYYCSSYTSSDTLEIFGGGTKLTVL
VH 2: QVQLVQSGAEVKKPGASVKVSCKASGYTFTDYYIHWVRQATGQGLEWMGWMNPNSGNTGYAQKFQGRVTMTRDTSISTAYMELSSLRSEDTAVYYCARGQGYTHSWGQGTMVTVSS
VL 2: DIQMTQSPSTLSASVGDRVTITCRASEGIYHWLAWYQQKPGKAPKLLIYKASSLASGVPSRFSGSGSGTEFTLTISSLQPDDFATYYCQQYSNYPPTFGGGTKLEIK
notes: RAA22 VH on Hole heavy chain (T366S, L368A, Y407V, Y349C) with lambda CL; cysteine insertion after S239; also called RAA22/B09 DuetMab; RAA22/B09 bispecific mAb
For the molecule B1, the binding result with mouse cMET (recombinant) and with Ron (CD136) was “no binding (tested: 10 µg/mL)” in each case.

(Values after US20250121104A1 (FUSION PHARMACEUTICALS, published 2025).)
